Source: paper PMC3135480 (Molecular Biology of the Cell, 2011)

Molecular target: T1, HA-tagged PXL-1 full-length (residues 1-413) (C. elegans, UniProt Q09476 1-413)
T1 sequence (looked up): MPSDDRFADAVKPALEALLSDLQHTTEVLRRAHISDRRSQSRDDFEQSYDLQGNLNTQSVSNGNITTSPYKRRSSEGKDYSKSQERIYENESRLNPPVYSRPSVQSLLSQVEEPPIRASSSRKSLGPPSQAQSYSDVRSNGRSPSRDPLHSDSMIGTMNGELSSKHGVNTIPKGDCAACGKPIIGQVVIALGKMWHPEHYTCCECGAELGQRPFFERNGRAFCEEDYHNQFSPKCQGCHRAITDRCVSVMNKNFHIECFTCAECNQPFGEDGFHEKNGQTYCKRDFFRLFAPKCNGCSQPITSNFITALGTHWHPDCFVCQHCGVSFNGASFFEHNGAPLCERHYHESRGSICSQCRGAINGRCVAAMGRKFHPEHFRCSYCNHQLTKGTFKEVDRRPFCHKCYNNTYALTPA
Test: pull-down

B1: MBP fusion of UNC-95 full-length (natural protein, C. elegans, UniProt Q9NEZ5 1-350, looked up)
chain: MTISPQPSHQQFESYQWTTESRSSQQRHGTGTPSQDGRLSAIPDPVERHVARWRSESRNSNKDKVFRNDEEFSQQDEIVNGTLTALKNDVEQTTEIIRRKQEQMRMERRQFQTEMEVNGRISIDPTDDWLAARLKAVSSDDMNQQLVKLKQDQRQNAVTDTLAALVYDVNATTEVLRRGQRGRDGEDGNKKKKEEIEYTLRLTPAPEEQIPQRPKIPEDDNMETDDYSRQYGVQMSEETDSLRRRRARSTTPRRTLHISGSPPPPAAAVCAYCSEEIDGAILTALAPNSERAQKFHTYHFMCTYCQKALNMHGTYREHDLKPYCHDCFYKLYNGLQYAPDDHQASIEKLI
- binding result: binds
